Five molecules from PMC7344962 (2020) can be followed below.

In assay [1] the target is T1, major surface antigen 1 (SAG1) of Toxoplasma gondii (Toxoplasma gondii, UniProt P13664 48-336).
T1 chain: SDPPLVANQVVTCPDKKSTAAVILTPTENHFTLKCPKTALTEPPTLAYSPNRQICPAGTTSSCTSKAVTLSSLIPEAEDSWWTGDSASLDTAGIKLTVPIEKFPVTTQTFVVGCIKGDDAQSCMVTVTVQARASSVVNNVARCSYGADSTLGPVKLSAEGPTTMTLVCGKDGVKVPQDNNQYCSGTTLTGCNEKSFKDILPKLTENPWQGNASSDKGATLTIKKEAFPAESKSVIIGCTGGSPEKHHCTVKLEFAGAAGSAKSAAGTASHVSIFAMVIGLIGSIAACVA
The assay can be described thus: SPR; two-state fit (kd1).

Assay [2] concerns the target T1, major surface antigen 1 (SAG1) of …. The assay can be described thus: SPR; two-state fit (KDapp).
Assay [3] shares this target. Description: SPR; Langmuir 1:1 fit.
Assay [4] shares this target. Description: SPR.
The target is the same in assay [5]. Description: SPR.

B1: scFv S1A0 (scFv, V domains shown)
VH: QVQLQQSGAELVRPGVSVKISCKGSGYTFTDYGMHWVKQSHAKSLEWIGIISTYSGDASYNQKFKGKATMTVDKSSSTAYMELARLTSEDSAIYYCARSSTWYYFDYWGQGTTLTVSS
VL: DIQVTQTTSSLSASLGDRVTISCRASQDISNYLNWYQQKPDGTVKLLIYYTSRLHSGVPSRFSGSGSGTDYSLTISNLEQEDIATYFCQQGNTLPYTFGGGTKLEIK
For the molecule B1, the koff in assay [1] came out at 0.0137 s⁻¹. The molecule also came in with a Kd in assay [2] of 181 nM.

B2: scFv S1C4 (scFv, V domains shown)
VH: QVQLQQSGAELVRPGVSVKISCKGSGYTFTDYGMHWVKQRPGHGLEWIGIISTYSGDASYNQKFKGKATMTVDKSSSTAYMELARLTSEDSAIYYCARSSTWYYFDYWGQGTTLTVSS
VL: DIQMTQTPSSLSASLGDRVTISCRASQDISNYLNWYQQKPDGTVKLLIYYTSRLHSGVPSRFSGSGSGTDYSLTISNLEPEDIATYYCQQGNTLPYTFGGGTKLEIK
For B2, the Kd in assay [3] came out at 61 nM; in assay [4] it was 61 nM; in assay [2], 59 nM. In assay [1], this molecule displayed a koff of 0.0158 s⁻¹.

B3: scFv S1A4 (scFv, V domains shown)
VH: QVQLQQSGAELVRPGVSVKISCKGSGYTFTDYGMHWVKQSHAKSLEWIGIISTYSGDASYNQKFKGKATMTVDKSSSTAYMELARLTSEDSAIYYCARSSTWYYFDYWGQGTTLTVSS
VL: DIQMTQTPSSLSASLGDRVTISCRASQDISNYLNWYQQKPDGTVKLLIYYTSRLHSGVPSRFSGSGSGTDYSLTISNLEPEDIATYYCQQGNTLPYTFGGGTKLEIK
Turning to B3, the values for the Kd in assay [3], in assay [4] and in assay [2] were 236 nM, 236 nM and 117 nM, respectively. The same molecule displayed a dissociation rate constant (koff) in assay [1] of 0.0142 s⁻¹.

B4: scFv S1D4 (scFv, V domains shown)
VH: QVQLQQSGAELVRPGTSVKISCKASGYTFTDYGMHWVKQRPGHGLEWIGIISTYSGDASYNQKFKGKATMTVDKSSSTAYMQLSSLTSEDSAVYYCARSSTWYYFDYWGQGTLVTVSA
VL: DIQMTQTPSSLSASLGDRVTISCRASQDISNYLNWYQQKPDGTVKLLIYYTSRLHSGVPSRFSGSGSGTDYSLTISNLEPEDIATYYCQQGNTLPYTFGGGTKLEIK
For the molecule B4, the results for the Kd in assay [3], in assay [5] and in assay [2] were 400 nM, 400 nM and 360 nM, respectively. Further, in assay [1], the koff turned out to be 0.0183 s⁻¹.

B5: scFv S1B4 (scFv, V domains shown)
VH: QVQLQQSGAELVRPGTSVKISCKASGYTFTDYGMHWVKQSHAKSLEWIGIISTYSGDASYNQKFKGKATMTVDKSSSTAYMQLSSLTSEDSAVYYCARSSTWYYFDYWGQGTLVTVSA
VL: DIQMTQTPSSLSASLGDRVTISCRASQDISNYLNWYQQKPDGTVKLLIYYTSRLHSGVPSRFSGSGSGTDYSLTISNLEPEDIATYYCQQGNTLPYTFGGGTKLEIK
Turning to B5, the Kd was determined as 323 nM in assay [3], 323 nM in assay [4] and 329 nM in assay [2]. Further, in assay [1], the koff stood at 0.0255 s⁻¹.
